Residue numbers refer to the chain shown, from its start.
T1: Kinesin-binding protein (KIFBP), wild type (UniProt Q96EK5 1-621)
T1 construct: also called KIFBP-WT; WT-KIFBP; source: E. coli BL21-DE3, purified (glutathione-Sepharose, PreScission cleavage, Superdex 200)
T1 sequence (looked up): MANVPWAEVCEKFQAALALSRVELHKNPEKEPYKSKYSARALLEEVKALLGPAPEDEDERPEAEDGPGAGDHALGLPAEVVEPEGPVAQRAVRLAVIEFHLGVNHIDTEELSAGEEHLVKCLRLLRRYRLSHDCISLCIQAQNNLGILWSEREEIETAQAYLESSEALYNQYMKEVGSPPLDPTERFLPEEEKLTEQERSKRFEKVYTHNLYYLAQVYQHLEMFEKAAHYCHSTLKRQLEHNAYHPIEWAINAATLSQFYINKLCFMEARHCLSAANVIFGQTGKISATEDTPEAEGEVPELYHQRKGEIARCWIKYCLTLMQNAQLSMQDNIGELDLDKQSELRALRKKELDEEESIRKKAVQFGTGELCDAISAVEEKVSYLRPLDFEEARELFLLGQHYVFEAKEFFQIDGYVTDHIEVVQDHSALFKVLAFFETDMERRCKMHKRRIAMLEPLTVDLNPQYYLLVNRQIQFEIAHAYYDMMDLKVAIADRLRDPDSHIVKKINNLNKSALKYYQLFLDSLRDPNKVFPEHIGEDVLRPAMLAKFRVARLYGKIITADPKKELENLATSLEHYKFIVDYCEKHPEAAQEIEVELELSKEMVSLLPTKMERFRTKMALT

B1: His6-KIF15-N375 (KIF15 motor domain, amino acids 1 to 375) (domain or fragment, human, UniProt Q9NS87 1-375, looked up)
chain: MAPGCKTELRSVTNGQSNQPSNEGDAIKVFVRIRPPAERSGSADGEQNLCLSVLSSTSLRLHSNPEPKTFTFDHVADVDTTQESVFATVAKSIVESCMSGYNGTIFAYGQTGSGKTFTMMGPSESDNFSHNLRGVIPRSFEYLFSLIDREKEKAGAGKSFLCKCSFIEIYNEQIYDLLDSASAGLYLREHIKKGVFVVGAVEQVVTSAAEAYQVLSGGWRNRRVASTSMNRESSRSHAVFTITIESMEKSNEIVNIRTSLLNLVDLAGSERQKDTHAEGMRLKEAGNINRSLSCLGQVITALVDVGNGKQRHVCYRDSKLTFLLRDSLGGNAKTAIIANVHPGSRCFGETLSTLNFAQRAKLIKNKAVVNEDTQG
notes: No cleavage of the tag is described; also called KIF15 (1 to 375); source: E. coli BL21-DE3, purified (Ni-NTA, Superdex 200)
B2: KIFBP-L14^m (Loop-14 mutant of KIFBP) (natural protein, UniProt Q96EK5 1-621, looked up)
chain: T1 sequence (looked up) with D460A, L461A, N462A, P463A, Q464A, Y465A
notes: The methods tell the construction of mCherry-KIFBP-L14^m only, not of GST-KIFBP-L14^m; also called GST-KIFBP-L14^m; source: E. coli BL21-DE3, purified (glutathione-Sepharose, PreScission cleavage, Superdex 200)
B3: His6-KIF18A-N363 (KIF18A motor domain, amino acids 1 to 363) (domain or fragment, human, UniProt Q8NI77 1-363, looked up)
chain: MSVTEEDLCHHMKVVVRVRPENTKEKAAGFHKVVHVVDKHILVFDPKQEEVSFFHGKKTTNQNVIKKQNKDLKFVFDAVFDETSTQSEVFEHTTKPILRSFLNGYNCTVLAYGATGAGKTHTMLGSADEPGVMYLTMLHLYKCMDEIKEEKICSTAVSYLEVYNEQIRDLLVNSGPLAVREDTQKGVVVHGLTLHQPKSSEEILHLLDNGNKNRTQHPTDMNATSSRSHAVFQIYLRQQDKTASINQNVRIAKMSLIDLAGSERASTSGAKGTRFVEGTNINRSLLALGNVINALADSKRKNQHIPYRNSKLTRLLKDSLGGNCQTIMIAAVSPSSVFYDDTYNTLKYANRAKDIKSSLKSNV
notes: No cleavage of the tag is described; also called KIF18A (1-363); source: E. coli BL21-DE3, purified (Ni-NTA, Superdex 200)

How the values were obtained:
Conditions in all cases: both partners purified
[1] = target: T1, Kinesin-binding protein (KIFBP), wild …; experiment: SEC; kinesin motor domain mixed with equimolar KIFBP, Superose 6, 10 mM K-Hepes pH 7.7, 50 mM KCl, 1 mM DTT, 0.2 mM MgATP; fractions analysed by SDS-PAGE
[2] = target: B1; experiment: pull-down; His6-kinesin motor domain immobilised on Ni-NTA agarose, 20 ug KIFBP protein or GST in 200 ul, 10 mM Hepes pH 7.4, 50 mM KCl, 10 mM imidazole, 30 min at 4°C; Coomassie gel, ratio of KIFBP to kinesin in the pellet
[3] = target: T1, Kinesin-binding protein (KIFBP), wild …; experiment: as above

**Q.** Does B1 bind [1]?
**A.** Result: binds

**Q.** B2 was tested. Which “fold reduction in binding against KIFBP-WT” value [2] did it give?
**A.** Its value is 2 fold.

**Q.** Does B3 bind [3]?
**A.** Result: binds
